IntAct's records for PubMed 19233177

B1: Polycomb complex protein BMI-1 (Homo sapiens), P35226 (parent)
chain: MHRTTRIKITELNPHLMCVLCGGYFIDATTIIECLHSFCKTCIVRYLETSKYCPICDVQVHKTRPLLNIRSDKTLQDIVYKLVPGLFKNEMKRRRDFYAAHPSADAANGSNEDRGEVADEDKRIITDDEIISLSIEFFDQNRLDRKVNKDKEKSKEEVNDKRYLRCPAAMTVMHLRKFLRSKMDIPNTFQIDVMYEEEPLKDYYTLMDIAYIYTWRRNGPLPLKYRVRPTCKRMKISHQRDGLTNAGELESDSGSDKANSPAGGIPSTSSCLPSPSTPVQSPHPQFPHISSTMNGTSNSPSGNHQSSFANRPRKSSVNGSSATSSG

Variants of: B1
Details: with ubc_human UBC

Q: C18Y was tested. Which “effect of a mutation on the interaction” value did it give?
A: Its value is “increasing interaction”.
